{"source": "paper PMC11889585", "about": "“Characterization of the putative yeast mitochondrial triacylglycerol lipase Tgl2” (The Journal of Biological Chemistry, 2025)", "target": "the molecule itself", "experiment": "non-reducing SDS-PAGE with immunoblot; whole cell lysate, crude or isolated mitochondria of yeast (tgl2Δ, yme1Δ, other deletion strains) expressing HA-tagged Tgl2 variants; reducing agents omitted during SDS-PAGE; anti-HA immunodecoration; dimer-sized band"}
{"protein": "N terminally hemagglutinin (HA) tagged Tgl2 (natural protein, S. cerevisiae, UniProt P54857 1-326, looked up, Tgl2, putative mitochondrial triacylglycerol lipase of the intermembrane space, S. cerevisiae; also called HA-Tgl2; native-like HA-Tgl2; source: S. cerevisiae (tgl2Δ, yme1Δ and other deletion strains), overexpressed from plasmid pYX142; in whole cell lysate, crude or isolated mitochondria; not shown: HA, N-terminal, kept) MKNDNKANDIIIDSVKVPDSYKPPKNPIVFCHGLSGFDKLILIPSVFHLTNLISNSIVHNMAENFMQDDEDKSDNKYTNLLEIEYWIGVKKFLQSKGCTVITTKVPGFGSIEERAMALDAQLQKEVKKIESKDKRHSLNLIAHSMGGLDCRYLICNIKNRNYDILSLTTISTPHRGSEMADYVVDLFENLNALRVSQKILPICFYQLTTAYMKYFNLVTPNSPKVSYFSYGCSFVPKWYNVFCTPWKIVYERSKGCPNDGLVTINSSKWGEYRGTLKDMDHLDVINWKNKLQDDWSKFFRTTTVGEKVDILNFYLKITDDLARKGF", "values": [{"measurement": "stoichiometry N", "result": 2}]}
